Data published in paper PMC4107924 (IUCrJ, 2014).

Biological target: T1, MATβV1Δ16, MATβV1 lacking the first 16 amino acids (human, UniProt Q9NZL9 17-334)
T1 construct: MATβV1 (splicing variant 1 of mat2B), human, lacking the first 16 amino acids; Cloned via NcoI and XhoI sites like MATβV1; source: cloned in the HIS-parallel vector
Experiment: SEC; MATα and MATβ incubated 1 h at 4°C in 50 mM HEPES pH 7.5, 10 mM MgCl2, 50 mM KCl, 300-500 µM NADP; Superdex 200 10/300 in 200 mM NaCl, 25 mM HEPES pH 7.5, 1 mM MgCl2, 5 mM KCl, 1 mM TCEP; also tested for the effect of NADP
Conditions: both partners purified

binding result: binds
B1: MATα1, catalytic subunit of methionine adenosyltransferase (mat1A gene) (enzyme)
chain: not shown
notes: MATα1, catalytic subunit encoded by mat1A, human; construct provided by SGC Oxford; His tag cleaved with TEV protease; also called MAT(α1)4; source: E. coli BL21(DE3), purified (nickel resin, HiTrap Q ion exchange, Superdex 200 gel filtration)
